# The Human Domainome abundance scans (Beltran et al. 2025)
# ± gives the uncertainty stated by the source.
# B1: Transcriptional repressor p66-beta, residues 415 to 455; numbered along this chain, Q8WXI9 (parent)
# chain: VEPFVCAQCRTDFTPHWKQEKNGKILCEQCMTSNQKKALKA
# Variants of: B1
# Test: abundance fitness (aPCA) (normalised: wild type 0, dead -1); higher = more abundant; growth selection in yeast, the domain comes from the species named
# Conditions: Homo sapiens
row,Variant,abundance fitness
1,K36T,-0.024 ± 0.075
2,K36A,-0.062 ± 0.073
3,K36N,0.14 ± 0.26
4,K36R,-0.168 ± 0.068
5,K36Q,0.105 ± 0.14
6,K36G,-0.006 ± 0.053
7,K36D,-0.239 ± 0.14
8,K36S,-0.113 ± 0.089
9,K36V,-0.277 ± 0.07
10,K36I,-0.198 ± 0.4
11,K36P,-0.242 ± 0.14
12,K36M,-0.078 ± 0.09
13,K36F,-0.324 ± 0.17
14,K36E,-0.09 ± 0.082
15,K36C,-0.275 ± 0.12
16,K36L,-0.329 ± 0.11
17,K36W,-0.256 ± 0.085
18,K37L,-0.036 ± 0.08
19,K37Y,-0.116 ± 0.2
20,K37H,-0.176 ± 0.23
21,K37P,0.1 ± 0.088
22,K37N,-0.226 ± 0.19
23,K37C,-0.309 ± 0.14

row,Variant,abundance fitness
1,K37V,-0.035 ± 0.076
2,K37M,0.095 ± 0.13
3,K37A,0.018 ± 0.067
4,K37I,-0.092 ± 0.24
5,K37G,-0.015 ± 0.056
6,K37Q,0.168 ± 0.079
7,K37T,-0.027 ± 0.11
8,K37E,0.142 ± 0.066
9,K37R,-0.074 ± 0.064
10,K37D,-0.191 ± 0.21
11,K37S,-0.056 ± 0.093
12,L39V,0.078 ± 0.061
13,L39H,-0.078 ± 0.14
14,L39R,-0.016 ± 0.061
15,L39D,-0.558 ± 0.3
16,L39G,0.157 ± 0.052
17,L39N,0.54 ± 0.45
18,L39A,-0.083 ± 0.079
19,L39T,-0.199 ± 0.13
20,L39K,-0.015 ± 0.13
21,L39F,-0.425 ± 0.26
22,L39Q,-0.291 ± 0.17
23,L39I,0.122 ± 0.18

row,Variant,abundance fitness
1,L39C,-0.1 ± 0.16
2,L39E,-0.108 ± 0.1
3,L39Y,0.577 ± 0.33
4,L39S,0.094 ± 0.097
5,N34K,-0.254 ± 0.14
6,N34H,-0.077 ± 0.1
7,N34P,-0.257 ± 0.11
8,N34Y,-0.287 ± 0.18
9,N34T,-0.199 ± 0.13
10,N34W,-0.67 ± 0.12
11,N34I,-0.088 ± 0.41
12,N34V,-0.223 ± 0.065
13,N34Q,-0.083 ± 0.082
14,N34F,-0.206 ± 0.13
15,N34G,-0.156 ± 0.07
16,N34R,-0.179 ± 0.064
17,N34M,-0.371 ± 0.2
18,N34L,-0.327 ± 0.092
19,A38Q,-0.541 ± 0.44
20,A38G,-0.213 ± 0.057
21,A38M,-0.181 ± 0.13
22,A38D,0.046 ± 0.13
23,A38K,0.059 ± 0.096

row,Variant,abundance fitness
1,A38Y,-0.228 ± 0.21
2,A38W,-0.398 ± 0.12
3,A38T,0.687 ± 0.36
4,A38L,-0.053 ± 0.094
5,A38P,-0.509 ± 0.47
6,A38V,-0.04 ± 0.073
7,A38S,0.066 ± 0.12
8,A38H,-0.32 ± 0.36
9,A38R,-0.19 ± 0.064
10,A38E,0.167 ± 0.083
11,A41G,0.01 ± 0.075
12,A41R,-0.071 ± 0.079
13,A41K,-0.091 ± 0.43
14,A41E,-0.02 ± 0.27
15,A41S,0.004 ± 0.23
16,A41C,-0.215 ± 0.2
17,A41W,0.002 ± 0.49
18,A41V,0.153 ± 0.18
19,A41M,-0.247 ± 0.2
20,A41L,0.211 ± 0.14
21,K40H,-0.125 ± 0.25
